{"source": "patent US7060449"}
{"molecular_target": "T1, rat GALR2 (rat)", "T1 chain": "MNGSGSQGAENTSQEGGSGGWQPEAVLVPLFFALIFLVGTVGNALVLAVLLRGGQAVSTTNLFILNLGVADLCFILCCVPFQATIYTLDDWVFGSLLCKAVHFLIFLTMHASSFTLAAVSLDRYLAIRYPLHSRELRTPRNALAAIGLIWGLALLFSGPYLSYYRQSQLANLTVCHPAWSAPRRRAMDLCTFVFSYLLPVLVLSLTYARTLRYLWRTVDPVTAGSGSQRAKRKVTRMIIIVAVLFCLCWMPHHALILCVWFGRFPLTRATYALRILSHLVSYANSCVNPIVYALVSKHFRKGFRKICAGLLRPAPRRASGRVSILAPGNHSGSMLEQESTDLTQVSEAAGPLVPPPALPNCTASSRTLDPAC", "experiment": "radioligand", "conditions": "modification not given", "units": {"Kd": "nM"}}
{"binder": "GWTLNSAGYLLGPHAIDNHRSFHDKYGLA", "note": "[[125I]porcine galanin, P07480]", "Kd": 0.2}
{"molecular_target": "T1, rat GALR2 (rat)", "experiment": "competition", "conditions": "modification not given", "units": {"Ki": "nM"}}
{"binder": "GWTLNSAGY", "note": "[porcine galanin 1-9, P07480]", "Ki": "> 1000"}
{"binder": "GWTLASAGYLLGPHAI", "note": "[[Ala5]galanin(1-16), P07480]", "Ki": "> 620"}
{"binder": "DNHRSFHDKYGLA", "note": "[porcine galanin 17-29, P07480]", "Ki": "> 1000"}
{"binder": "GFTLNSAGYLLGPHAIDNHRSFHDKYGLA", "note": "[[Phe2]porcine galanin(1-29), P07480]", "Ki": "> 1000"}
{"binder": "GFTLNSAGYLLGPHAI", "note": "[Phe2-galanin 1-16, P07480]", "Ki": "> 1000"}
{"binder": "GWTLNSAGYLLGPHAIDNHRSFHDKYGLA", "note": "[porcine galanin(1-29), P07480]", "Ki": 0.447}
{"binder": "GATLNSAGYLLGPHAI", "note": "[porcine Ala2-galanin 1-16, P07480]", "Ki": "> 1000"}
{"binder": "GWTLNSAGYLLGPHAIDNHRSFHDKYGLA", "note": "[[D-Trp2]porcine galanin(1-29), P07480]", "Ki": 6.46}
{"binder": "GWTLNSAGALLGPHAI", "note": "[[Ala9]galanin(1-16), P07480]", "Ki": "> 1000"}
